From the supplement of paper PMC12338614
± gives the uncertainty stated by the source.

B1: library; numbered along this chain (parent)
chain: MEVVDPQQLGMFTEGELMSVGMDTFIHRIDSTEVIYQPRRKRAKLIGKYLMGDLLGEGSYGKVKEVLDSETLCRRAVKILKKKKLRRIPNGEANVKKEIQLLRRLRHKNVIQLVDVLYNEEKQKMYMVMEYCVCGMQEMLDSVPEKRFPVCQAHGYFCQLIDGLEYLHSQGIVHKDIKPGNLLLTTGGTLKISDLGVAEALHPFAADDTCRTSQGSPAFQPPEIANGLDTFSGFKVDIWSAGVTLYNITTGLYPFEGDNIYKLFENIGKGSYAIPGDCGPPLSDLLKGMLEYEPAKRFSIRQIRQHSWFRKKHPPAEAPVPIPPSPDTKDRWRSMTVVPYLEDLHGADEDEDLFDIEDDIIYTQDFTVPGQVPEEEASHNGQRRGLPKAVCMNGTEAAQLSTKSRAEGRAPNPARKACSASSKIRRLSACKQQ

Variants of: B1
Assay: STK11 functional score (HeLa growth suppression), rescaled enrichment; synonymous median = 1, nonsense median = 0 (normalised score)
Details: with HeLa; variant type: missense
Method in brief: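 Codon-randomised (POPCode) libraries of codon-optimised STK11 were integrated by Bxb1 at an AAVS1 landing pad in HeLa, in three regions each transfected three times. Integrants (BFP-negative, mCherry-positive) were FACS-sorted 4–5 days after electroporation and grown about two weeks; tiled gDNA amplicons were sequenced on NextSeq (~2 million reads per tile). The functional score is the wild-type-corrected post/pre-selection log ratio, rescaled to synonymous and nonsense medians, merged over codons and replicate transfections, with bootstrapped error.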

STK11 functional score, by site and new letter:
H168: W 0.545 ± 0.6 | S 0.83 ± 0.3 | E 1.3 ± 0.24 | P 0.0717 ± 0.12 | V 0.473 ± 0.13 | I 0.159 ± 0.098 | N 0.275 ± 0.12 | Q 0.947 ± 0.14 | Y 0.357 ± 0.26 | M 0.519 ± 0.14 | C 0.168 ± 0.32 | R 0.838 ± 0.47 | A 1.25 ± 0.34 | L 0.263 ± 0.078 | F 0.851 ± 0.51 | D 0.0708 ± 0.12 | G 0.533 ± 0.13
G171: N 1.69 ± 0.14 | W 1.53 ± 0.11 | R 1.24 ± 0.38 | C 0.479 ± 0.091 | V 1.25 ± 0.26 | S 1.41 ± 0.46 | A 1.18 ± 0.4 | L 1.43 ± 0.39 | I 1.46 ± 0.18
Y166: G 1.23 ± 0.34 | S 0.964 ± 0.3 | T 1.11 ± 0.67 | D -0.0245 ± 0.5 | V 1.14 ± 0.22 | P 0.994 ± 0.26 | L 0.75 ± 0.13 | M 0.651 ± 0.08 | C 0.804 ± 0.08 | A 1.47 ± 0.24 | W 0.846 ± 0.087 | K 1.56 ± 0.29 | F 1.05 ± 0.27 | I 1.21 ± 0.56
G163: L 0.386 ± 0.3 | F -0.122 ± 0.17 | H -0.383 ± 0.17 | T 0.008 ± 0.28 | V 0.0343 ± 0.1 | A 1.05 ± 0.2 | C 0.245 ± 0.11 | P -0.013 ± 0.11 | S 0.402 ± 0.13 | E -0.0159 ± 0.21 | W 0.91 ± 0.22 | R 0.0418 ± 0.45 | Y -0.0827 ± 0.069
E165: L 0.448 ± 0.22 | Y 1.24 ± 0.15 | M 0.0982 ± 0.39 | T 0.129 ± 0.15 | K 0.973 ± 0.53 | W 0.516 ± 0.11 | S 1.39 ± 0.38 | R 1.18 ± 0.59 | V 0.465 ± 0.35 | Q 0.995 ± 0.58 | G 0.569 ± 0.084
S169: L 0.7 ± 0.33 | Y 1.54 ± 0.34 | A 1.09 ± 0.49 | R 0.882 ± 0.35 | W 1.25 ± 0.35 | V 0.428 ± 0.21 | I 0.231 ± 0.09 | T 1.22 ± 0.74 | G 1.29 ± 0.33 | P 0.391 ± 0.098 | H 1.43 ± 0.33
H174: Y 1.11 ± 0.27 | S 0.695 ± 0.29 | K 0.153 ± 0.09 | W 1.02 ± 0.37 | P 0.0698 ± 0.089 | F 0.138 ± 0.044 | T 1.63 ± 0.19 | I 0.662 ± 0.19 | N 0.317 ± 0.17 | G 0.326 ± 0.24 | C 0.891 ± 0.41 | V 0.69 ± 0.11 | A 0.322 ± 0.12 | L 0.234 ± 0.067
D162: T 1.4 ± 0.28 | S 1.26 ± 0.13 | V 1.17 ± 0.11 | W 1.6 ± 0.22
K175: A 0.904 ± 0.14 | L 1.11 ± 0.18 | F 0.988 ± 0.35 | I 0.589 ± 0.096 | N 0.914 ± 0.55 | G 0.847 ± 0.18
Q170: R 1.16 ± 0.33 | M 1.54 ± 0.25 | E 0.234 ± 0.13 | D -0.0762 ± 0.095 | C 1.51 ± 0.44 | F 0.834 ± 0.45 | T 0.156 ± 0.35 | K 0.664 ± 0.14 | S 0.916 ± 0.13 | V 1.26 ± 0.37 | L 0.967 ± 0.15 | A 0.916 ± 0.14 | W 1.17 ± 0.12 | G 1.37 ± 0.37 | H 0.738 ± 0.12 | P 0.0405 ± 0.082
I172: A 1.02 ± 0.78 | N 0.174 ± 0.13 | P -0.291 ± 0.062 | M 0.35 ± 0.093 | V 1.21 ± 0.39 | R 0.401 ± 0.096 | S 0.549 ± 0.27 | L 0.71 ± 0.11 | W 0.519 ± 0.11 | F 0.904 ± 0.34 | G 0.806 ± 0.26
L167: C 1.13 ± 0.77 | V 1.15 ± 0.2 | S 0.241 ± 0.14 | N 0.605 ± 0.12 | H -0.00514 ± 0.083 | E -0.113 ± 0.12 | Y 0.387 ± 0.46 | F 1.05 ± 0.23 | D -0.162 ± 0.094 | R -0.0722 ± 0.082 | K 0.0279 ± 0.15 | A 0.629 ± 0.09 | P 0.104 ± 0.11 | W -0.183 ± 0.049 | G 0.121 ± 0.079 | I 1.44 ± 0.25
L164: T 0.864 ± 0.19 | W 0.051 ± 0.1 | C 1.21 ± 0.15 | R -0.302 ± 0.12 | N 0.0402 ± 0.26 | F -0.208 ± 0.089 | P -0.0524 ± 0.1 | I 1.16 ± 0.17 | H 0.0804 ± 0.11 | S 0.135 ± 0.1 | G -0.142 ± 0.098 | V 0.774 ± 0.13
V173: F 0.953 ± 0.33 | I 1.52 ± 0.25 | S 1.23 ± 0.4 | C 0.883 ± 0.57 | W 0.343 ± 0.097 | R 0.37 ± 0.16 | P 0.128 ± 0.49 | A 0.314 ± 0.31 | Y 1.04 ± 0.13 | L 0.137 ± 0.13 | H 0.45 ± 0.086 | G 1.15 ± 0.33 | Q 1.46 ± 0.14
